Experimental data taken from the DeepSol protein solubility set.

Test: soluble on expression in E. coli; label from the status in PepcDB or PDB records

## MSLGEPEELVIGGVFSLSSGTSVEACRQALAGAMAAVEWVNSNGGVNIGGSKVPVRLLQEDDKGDPANAVRLIEYMARQRGVGVMLAPCDPGVLVDAVEAARGYGVVSIVYGDAPASVADPGGKTLLVGAPAEEYFTPVLEMVSILDIQSRNLAIVYQDTGFAAAVAEATRNRAVEQGFVVVLYSAYPPQAGEEELGTLALRLQASNPDVIIAIGGFRDGVELVRAMSSYGVEAKFIAMAVAPSVPEFYSELGALSQAILYPTLWELASKPYTTAEGYEWFGPSREEFYSLFREAIESLGHPVSEPGYHAAMAALAVLAVAKAAEEAGSLDPDAIYESLKNIKIMTFAGPFDLNPETGLQNEREVLVGQWINGRRFTVWPVGQAYATPVYPHEGHHHHHH
  soluble on expression in E. coli: soluble

## MGSDKIHHHHHHMIEDNMKLKTGIPALDRILGGGFEKGCNIALVGGMDNDHILLTHQLTNAFLSSGKKVLLVELRQDPASLIKWLSQYNINYEEYLEDGDLKILDGFSNLYSPASISGPDVLPNPLDLGITTAIIRDNVSKEKYDILVFDDITSLYALQTDYKAYVRVIVRLTNSIRKLGASSLVAINSDVLSIQDLSMILMPFEYLIEIREGMIRFKRSFSFINVPGVPYVKTNKGIIPIEDVLKDAVSIRDSLVLTSDGVLKLGEGRVQLIGETSERSLIEFVYRFLGPEKGREFLYGWGRHEVEHLEIPKIESVEEIKEILEEAFEVTRSTGGGILRIVEATKDIIIVEGKNLFPHIRNFPYPAHVHYAGYMAKLLEKATGERWEGEEIKCESQTNDKCIFILRRV
  soluble on expression in E. coli: not soluble

## MEKGAPQNNADEEAKVEVPPPAPKTTSAERAPEKVSAEKAQEQEKSAMGSVPIPPEREKHIKERKTGYEYSIVTINYKPGTKFGLGIKNVFNKSIYVIKVEENSLVSGIFNVADRIIDVDGEPVYDNAKCKGLLVKALKEKKVCTLLIERGITESALKDATNEMNEEHTQSVMAPPDVKSIMRKLEAHNFLRKSPSCESAAAPNPVPSAMTKNKEGKGERKACILEDGHKSVMIRMDNEENRNKLKKVEPKEPPRRLDPKTPPKPAAPEPKPEGK
  soluble on expression in E. coli: not soluble

## MGSDKIHHHHHHMLTVLLLAGAEKLINMAIASDEITKAGLVPLAGKVLRLNMGTPDVNLDVLFTQERLRFEPVTTESVFEQSGTMNERQKASLERGRLGHSRPDCIITVANPAQLLNLMRGTEGNLPIEGDYKVLMQLNQLVAGFDPDVAGQLEPFIGKPMASQLHLLISQLKGSWRHSAKRAFNDVSDWANDVAGNVTPDTSEAAEVNVLKQQLLKLRADVEREEARLAAIKDEQARLTNSR
  soluble on expression in E. coli: not soluble

## MEDLLPTLPSLDHRDALPNALASPVLPAGQSDAQLVRTWLDTKYAAGLGIRASTRAQYALEAHRLLWYAHALGRPLASWQVADANGYLAFLADPPAHAVGDGRVRQDSPAWRPLRGPLSEASRRQTATIVGGLFEWLVGVEALRVNPFQAVPRARSARGPGSQRRFLEAEQLAAVFDAVEARPAPTLWAQLHKARDRLLLALLFHTGLRASEVTALTWPDFERQRGRHGDFWTVRIREAKGGSDQLVPCDNVMAELARFRQLVGLSPEPRATDTMAVVPAMAGGRQRLAPLTDTLALQRRLSRPVRTRQGLYTIVRQVFEAAAVRLEASGYAEGAANLRAASTHWLRHSHATHLLRAGVPVTDVQRTLRHRDINTTRRYTHEALEDVARSIGGKLPAVLEHHHHHH
  soluble on expression in E. coli: not soluble

## MGSDKIHHHHHHMSEQQCTELKVLDTVPFGQVSGDAQFYALRLEKPRWKSWKPGQFVMIRPQGWALDMLWARPFSICRVSSRDLVLFFQAVGRGTRRLADLKAGDTVVVWGPLGNSFAVEPETPTLMLAGGIGIAPFIGYAHTHPKPWNLWMEFGHRMPLGCYPFESINEKIMADNHQEECPDDLLRFIERLEKRIAEYAEQDGLVLACGPTPFLRTVQRFALQYGARCQLSLETRMACGVGGCLGCVTSTTEKHHLHHTQAGKAQVCNNGPVFWADQVDLDKA
  soluble on expression in E. coli: not soluble

## MEMKGINNIRIDDRLIHGQVATMWSNKLGVTRLMVVNDNVAKNDLQKQVLRMAVPAGISSSIITEETAISNIKNGKYEGQNVLMIVKSPVDLLPFIENDLEIKRINVGNMSNRNNTTVLRPNISVTDEERSAFEKLLSRDIEITTIMTPDDKKTFLKDIL
  soluble on expression in E. coli: not soluble

## MLRLIPNKGLKKTINTLTVAEKARINHQDIEELLLRYQRSCPEDAARNITEVTNPNQEKHEGLRVFVIQTWMALMVANSYGLETYQTLKTFMDRQGYKTQPDSTYMATEQKD
  soluble on expression in E. coli: not soluble

## MGHHHHHHSHMEKCSVGGLELTEQTPALLGNMAMATSLMDIGDSFGHPACPLVSRSRNSPVEDDDDDDDVVFIESIQPPSISAPAIADQRNFIFASSKNEKPQGNYSVIPPSSRDLASQKGNISETIVIDDEEDVETNGGAEKKSSFFIEWGLPGTKNKTNDLDFSTSSLSRSKTKTGVRPFNPGRMNVAGDLFQNGEFATHHSPEMHLQRRLMSFFQ
  soluble on expression in E. coli: not soluble

## DGGTMENLSRRLKVTGDLFDIMSGQT
  soluble on expression in E. coli: soluble

## MAHHHHHHMLQLTVEDLTPEAIAALEVQCKAQAEKVNQLEEAMGLLQKELDDARKKYRSTSKAVQWRRLMAEVENDEDIANITVMMQEALADFYKTMQPPDDYDESREGISFCDTDDYADLTSVETKVDEFLLAIRRLVGENCASPEDDGDRRHQRRRALLMLLVLTINAARITDTPTEDAASLMEEQQDNIASLWQTLLHTDSGLVEAEKSEWKDIVSSFLGPPYDTST
  soluble on expression in E. coli: soluble

## SLANLSKERQQALLKILHYIQDGGDFTEAKKMFQESFDKVDVSEITAAERELIAQGLDPRKIQYLCNVHADVFKGNIKENAANPDFATPGHPVNTLKQENVVIKSLVNDYLLPNLKKWEKDHSEQTLSKIKQALSDLATIGKHYARKETSFFPLMTKYGITAPPQVMWGVDDKIRRLIKEANNVVNENDVDPAKLRKIIDEVSHEVLEMIFKEEEIMVPMIDEVASPADWGNVKDEEKQIGYTLINPPMNWKPKEE
  soluble on expression in E. coli: soluble

## MGSDKIHHHHHHSGSFDPVTGAYTTDPITVTLTPKTVAVSTSVIANGERVYWATDKYPQGAGTFYWGSHTYTLESASDVTLAIPGINASGVCTATGSGTSLTINGCFSFSHNGTIYMGKSASCKSFFSLQSNLSSLTNFGDFVALTLGPGTNTIQLNKTGITDVNTTSFTYPSTTRSTSYRWTTYDINLQATLSAKTPPYTYLYCSVSQGLRVIMTTGGVVPNPFAMVPAASKPAYSPTISYSPALPIINTIAVNIRNITAIDILPRTVFNTGTISAWRTTYMEQPLTVTGQGNITRDFGASQNFNVLESWTCATTGQIDFRIMRDNTNANVCSGATYTHPVQTPQSLTAQWKAQSSTASGAWSARATVTFTLP
  soluble on expression in E. coli: not soluble

## TPNKEDYLKCLYELGTRHNKITNKEIAQLMQVSPPAVTEMMKKLLAEELLIKDKKAGYLLTDLGLKLVSDLYRKHRLIEVFLVHHLGYTTEEIHEEAEVLEHTVSDHFVERLDQLLDYPKACPHGGTIPAKGELLVEKHKLTLEEAKEKGDYILARVHDNFDLLTYLERNGLQVGKTIRFLGYDDFSHLYSLEVDGQEIQLAQPIAQQIYVEKI
  soluble on expression in E. coli: soluble

## MIPADGWRHVGDQWLVSTDGAKIHASELADHLLADFGYAIVYDEMAEPVDLYRTQRFANDKQRLILTADQLLCADPQCTRAAYRGQAHHIEAWKNGGDTNLKNLCLTCGPHNALNDDDHAKGKHKNGHYVRDKYNGRIGWQPPDPTKSIRFNNHVLAQKSGRSWAIRHFGL
  soluble on expression in E. coli: not soluble

## MAADLSAYPDRESELTHALAAMRSRLAAAAEAAGRNVGEIELLPITKFFPATDVAILFRLGCRSVGESREQEASAKMAELNRLLAAAELGHSGGVHWHMVGRIQRNKAGSLARWAHTAHSVDSSRLVTALDRAVVAALAEHRRGERLRVYVQVSLDGDGSRGGVDSTTPGAVDRICAQVQESEGLELVGLMGIPPLDWDPDEAFDRLQSEHNRVRAMFPHAIGLSAGMSNDLEVAVKHGSTCVRVGTALLGPRRLRSP
  soluble on expression in E. coli: not soluble

## MSSQVSTSRGLPSPSKLGTFESPHTWQMSGPTGQAEAGSSDDQDIRLLSVSWNQDFGCFAAGTSNGFRIFNCDPFKETFRRDLKSGGFGIVEMLFRCNILALVGGGSNAHYPPNKVMIWDDHRSHCIGEFAFRSDVRAVKLGKDYIVIVLERKIYVYNFTDLKLLHQIETQSNPKGLCCLSHHSNTSVLACPGVHQGHVRVEHFGLKVTRMISAHDSHISCMALTMDGLLLATASMKGTLIRIFNTMDGTRLQEVRRGLDKADIYSIALSPNVQWLAVSSDKGTVHIFSLRVRVAGEDASNEQRSLEGPRMDHQNSSSSIDPLIQTNTGSNASSSLSFMKGILPKYFSSEWSFAQFHLPEVTRYIVAFGAQNTVMMVGLDGSFYRCSFDQVNGGQMLQKEYFRFIKADLTPLRTSAP
  soluble on expression in E. coli: not soluble

## AIAGANEDQEMELEALRSIYEGDNSFRELSPVSFQYRIGEDGDPKAFLIEVSWTETYPQTAPVISMNAFFNNTISSAVKQSILAKLQEAVEVNLGTAMTYTLFEYAKDHKEQFMENHHPGNSATPVANIISVETPTTAPSSKKKEKKEQLSKAQKRKLADKTDHKGELPRGWNWVDVVKHLSKTGSKDDE
  soluble on expression in E. coli: soluble

## MKIYVSCDIEGLAGIATFDMEKEDTVLFRELYHQHVAWLIEGIQKSAKNEQITEITIADSHSRGLNLAYARLAEMDERISLVSGFPRMDYMMSGLDSSYDVVFFLGYHAGIGKQKGNMDHGYSASVAYDLKINDLAMNETTINAAYASELGVPVGLIIGESGLEEQLFQEKMMPEVPFVSTKESLGRYAIKNRPMQQVREAIVATTSQVLTSFALSELPRYALQTPATVKLQCVTTAQADRIEMLPMIKRIDGRTVSFVGETMKDVMNGIVAVVGLGGTSY
  soluble on expression in E. coli: not soluble

## QFKVKSAFKKYSQVATQNGVTGAQAALRILQRGGLENVNVEMTSGMLSDHYDPRQKVLRLSEEVYSLPSIASVGVAAHEAGHALQDKVNYSPLAIRSAM
  soluble on expression in E. coli: not soluble

## QSALTQPASVSGSPGQSITISCTGTSSDVGGYNYVSWYQQHPGKAPKLMIYGVTNRPSGVSNRFSGSKSGNTASLTISGLQAGDEADYYCSSYTSTRTPYVFGTGTKVEIKRTVAAPSVFIFPPSDEQLKSGTASVVCLLNNFYPREAKVQWKVDNALQSGNSQESVTEQDSKDSTYSLSSTLTLSKADYEKHKVYACEVTHQGLSSPVTKSFNRGEC
  soluble on expression in E. coli: soluble

## MSLKISDVVVELFREAAIYLPEDVKNALEEAYKKESSEISKNTLKAIIENNKIAEETQVPLCQDTGVPIVFLKIGKNINSSEIMKIIEEIKEGVKKATEEVPLRPNVVHPLTRENFKTNVGLNSPFINIEFDESLDREIEIIAFPKGAGSENMSALKMLKPSDGIEGIKNFVLETIANAGGKPCPPIVVGIGIGGTADVALKLAKKALLRKIGERHRDKEIANLEKELLEKINSLGIGAMGLGGDITALDVFIEIAGCHTASLPVGICIQCWADRRAIKRIKLDAKEGGSHHHHHH
  soluble on expression in E. coli: soluble

## MRRVMIPKPGGGERPLGIPTIRDRVVQAAAKIVLEPIFEADFEDGAYGYRPRRNAVDAVKEVHRLMCRGYTDVVDADLSKYFDTIPHSDLLKSVARRIVDRNVLRLIKLWLRVPVEERDSNGKRRMSGGKSNKCGTPQGGVMVPLEHHHHHH
  soluble on expression in E. coli: not soluble

## MAHHHHHHMTGLIAPHAGMSYSGRTAAEAFAVFREYLYAKGSKGSELERIFILGPSHTRGFEGCELSAASAYETPFGPLRVDTAVVDRVITDLRKAGVGAATASRRTDEAEHSIEMETPYLSHILHYPPTTTGAPVQPAAGRVAIVPIIVGWTNRQDEKAICDVLKPYMDDARNFFICSSDFCHWGERFSYTYHYKRSEYPNIGDSIIAMDHAAMELLEKRDLERWYAYLQMTKNTICGRAPISIGMQRWASKGNKARVKFVHYSQSNKCKDADDSSVSYAAAIIME
  soluble on expression in E. coli: soluble

## MYQNILVPLDGSDNAYMALKHAVKLAQTFKSKLFLVNVIDITRLNAYSPAAYGGTLYTNLLKVAKDNSQDILDRGQQMASAAQVESLPIQVNSSPKASIATDIPKKYAIDLIVMGKSGTNAVSRILLGSTTAYVVQKAEVNVTVIN
  soluble on expression in E. coli: not soluble
